Results: IntAct's records for PubMed 29880681

B1: LIM domain and actin-binding protein 1 (Mus musculus), Q9ERG0-1 (parent)
chain: MESTPFNRRQWTSLSLRVTAKELSLVNKNKSSAIVEIFSKYQKAAEEANMERKKNNPESLPQHFRRGTLSVLKKKWENPVAGAEFHTDSLPNSSSEGGHTADYPPAEVTDKPAPGVRADREEHTQPKPRFGSRPEAVIQSRYPRSENSHDFKAQATESQKMENCLGDSRHEAEKPETSENTETSGKIEKYNVPLNRLKMMFEKGEHNQTKSLWTQSRNAGGRRLSENNCSLDDWEIGAGHLSSSAFNSEKNESKRNLELPRLSETSIKDRMAKYQAAVSKQSSPASYTNELKTSESKTHKWEQKENVPPGPEACSVHQEGSKVSTTENSLVALSVPAEDDTCNSQVKSEAQQPMHPKPLSPDARTSSLPESSPSKTAKKFQAPAKESCVECQKTVYPMERLLANQQVFHISCFRCSYCNNKLSLGTYASLHGRIYCKPHFNQLFKSKGNYDEGFGHKQHKDLWASKSDNEETLGRPAQPPNAGESPHSPGVEDAPIAKVGVLAASMEAKASSQREREDKPAETKKLRIAWPPPAELGGSGSALEEGIKVSKPKWPPEDDVCKTEAPEDVDLDLKKLRRSSSLKERSRPFTVAASFRTSSIKSPKASSPSLRKGWSESEQSEEFGGGIATMERKQTENARPSGEKENVGKSRWQGEEVPRSKDRSSFELESENFMENGANIAEDDNHVHAQQSPLEPEAPGWSGFVDTTAAKEFTTQNQKSQDVGFWEGEVVRELSVEEQIKRNRYYDEDEDEE
partner: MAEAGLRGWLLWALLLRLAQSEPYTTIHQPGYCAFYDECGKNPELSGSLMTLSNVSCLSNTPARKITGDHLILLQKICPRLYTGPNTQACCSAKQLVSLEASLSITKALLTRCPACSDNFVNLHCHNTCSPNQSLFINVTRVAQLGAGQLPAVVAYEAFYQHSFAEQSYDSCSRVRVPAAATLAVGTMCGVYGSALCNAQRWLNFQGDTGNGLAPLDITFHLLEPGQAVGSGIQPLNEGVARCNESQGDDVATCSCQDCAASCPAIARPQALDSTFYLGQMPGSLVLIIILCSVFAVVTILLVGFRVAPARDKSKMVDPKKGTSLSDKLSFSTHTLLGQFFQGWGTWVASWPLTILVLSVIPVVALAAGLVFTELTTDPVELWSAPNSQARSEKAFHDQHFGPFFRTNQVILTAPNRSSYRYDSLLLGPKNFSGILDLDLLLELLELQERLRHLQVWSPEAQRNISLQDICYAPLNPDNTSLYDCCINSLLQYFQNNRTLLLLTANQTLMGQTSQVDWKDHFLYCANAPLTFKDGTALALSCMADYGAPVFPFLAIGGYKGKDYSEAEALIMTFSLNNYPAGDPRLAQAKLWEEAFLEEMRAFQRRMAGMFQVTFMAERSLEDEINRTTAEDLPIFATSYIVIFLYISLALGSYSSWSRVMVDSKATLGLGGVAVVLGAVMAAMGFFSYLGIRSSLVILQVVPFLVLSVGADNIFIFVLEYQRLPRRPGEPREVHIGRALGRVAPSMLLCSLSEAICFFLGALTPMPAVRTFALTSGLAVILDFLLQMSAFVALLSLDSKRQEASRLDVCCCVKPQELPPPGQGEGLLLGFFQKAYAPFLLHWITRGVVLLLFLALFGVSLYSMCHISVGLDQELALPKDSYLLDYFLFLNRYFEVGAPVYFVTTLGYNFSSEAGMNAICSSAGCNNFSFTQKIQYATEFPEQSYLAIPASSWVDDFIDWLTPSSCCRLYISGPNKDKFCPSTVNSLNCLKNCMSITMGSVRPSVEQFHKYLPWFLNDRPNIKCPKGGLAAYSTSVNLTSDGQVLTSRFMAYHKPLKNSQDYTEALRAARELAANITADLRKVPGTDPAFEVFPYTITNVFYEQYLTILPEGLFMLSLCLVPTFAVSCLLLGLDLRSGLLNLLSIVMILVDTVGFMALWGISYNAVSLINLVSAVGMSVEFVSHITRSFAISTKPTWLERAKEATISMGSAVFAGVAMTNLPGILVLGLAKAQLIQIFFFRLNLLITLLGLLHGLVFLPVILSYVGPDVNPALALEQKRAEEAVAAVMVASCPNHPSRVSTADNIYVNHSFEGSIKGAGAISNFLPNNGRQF
B2: NPC1-like intracellular cholesterol transporter 1 (Homo sapiens), Q9UHC9-2 (parent)
chain: B1 partner

Variants of: B1
Conditions: with NPC1L1, Q9UHC9-2

| Variant | effect of a mutation on the interaction |
| --- | --- |
| C164A;L165A;G166A | disrupting interaction |

Variants of: B1
Conditions: with NPC1L1, Q9UHC9-2
Remark: another data set of the same source

| Variant | effect of a mutation on the interaction |
| --- | --- |
| C164A;L165A;G166A | disrupting interaction strength |

Variants of: B2
Conditions: with Lima1, Q9ERG0-1

| Variant | effect of a mutation on the interaction |
| --- | --- |
| Q1277A;K1278A;R1279A | disrupting interaction |
